{"source": "the nanobody polyreactivity screen of Harvey et al. (2022)"}
{"assay": "yeast display, Sf9 membrane polyspecificity reagent, FACS + sequencing; frameworks hold sequencing errors", "method_in_brief": "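Genes from sorted yeast were amplified by colony PCR, read by MiSeq 2 × 250 sequencing and filtered on CDR length. These cells carried a synthetic nanobody library in Saccharomyces cerevisiae BJ5465 and were sorted by FACS into low and high (top ~1%) gates on anti-HA and streptavidin fluorescence. Polyreactivity is labelled according to the gate of origin.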"}
{"sequence": "QVQLVESGGGLVQAGGSLRLSCAASGSTFAPYAMGWYRQAPGKETELVARITGSGGGTTYADSVKGRFTISRDNAKNTVYLQMNSLKPEDTAVYYCAAPRASQYGDDYWGQGTQVTVSS", "polyreactivity (PSR sort gate)": "high polyreactivity"}
{"sequence": "QVQLVESGGGLVQAGGSLRLSCAASGSTFAQYAMGWYRQAPGKERELVAAISRGGGSTYYADSVKGRFTISRDNAKNTVYLQMNSLKPEDTAVYYCNARTSHYDKYGYWGQGTQVTVSS", "polyreactivity (PSR sort gate)": "high polyreactivity"}
{"sequence": "QVQLVESGGGLVQAGGSLRLSCAASGSTFARNAMGWFRQAPGKEREFVASIRWGRGTTYYADSVKGRFTNSRDNAKNTLYLQLNSMIPEDSAVYYCATRNSSKRRGYYYWGQGTQVNVSS", "polyreactivity (PSR sort gate)": "high polyreactivity"}
{"sequence": "QVQLVESGGGLVQAGGSLRLSCAASGSTFARNAMGWYRQAPGKERELVAAISSGGTTNYADSVKGRFTISRDNAKNTVYLQMNSLKPEDTAVYYCNAGFRNVLTSGYLYDYWGQGTQVTVSS", "polyreactivity (PSR sort gate)": "low polyreactivity"}
{"sequence": "QVQLVESGGGLVQAGGSLRLSCAASGSTFASNAMGWYRQAPGKARELVAGISSSDGGTYYADSVKGRFTISRDIAKYNVYLEMKSLKPEDTAVYSCNAPPGTFQWQGHSDYWGQGTEVTVSS", "polyreactivity (PSR sort gate)": "low polyreactivity"}
{"sequence": "QVQLVESGGGLVQAGGSLRLSCAASGSTFASNVMGWYRQAPGKERELVAAITRGDRTHYADSVKGRFTISRDNAKNTVYLQMNSLKPEDTAVYYCAARFIFWVYDYDYWGQGSQVTVSS", "polyreactivity (PSR sort gate)": "low polyreactivity"}
{"sequence": "QVQLVESGGGLVQAGGSLRLSCAASGSTFASYAMGWYRQAPGKERELVAAIRWRGGTTYYADSVKGRFTISRDNAKNTVYLQMNSLKPDDTAVYYCNADRYYLYYYWGQGTQVTVSS", "polyreactivity (PSR sort gate)": "low polyreactivity"}
{"sequence": "QVQLVESGGGLVQAGGSLRLSCAASGSTFATYAMGWYRPAPGKERELVAAITRGGRTNYADSVKGRFTISRDNAKNTVYLQMNSLKPEDTSVYYCAADYIYGYFWRFGYWGQGTQVTVSS", "polyreactivity (PSR sort gate)": "low polyreactivity"}
{"sequence": "QVQLVESGGGLVQAGGSLRLSCAASGSTFATYAMGWYRQAPGKERELVAVITRGGRTYYADSVKGRFTISRDNAKNTVYLQMNSLKPEDTAVYYCAAKAYTYYARIGFDYWGQGTQVTVSS", "polyreactivity (PSR sort gate)": "high polyreactivity"}
{"sequence": "QVQLVESGGGLVQAGGSLRLSCAASGSTFAVNAMGWYRQAPGKERELVAAISGSGGRTYYADSVKGRFTISRDNAKNTVYLQMNSLKPEETAFYYCATELRAPYRSSGAYHYDYWGQGTQVTVSS", "polyreactivity (PSR sort gate)": "low polyreactivity"}
{"sequence": "QVQLVESGGGLVQAGGSLRLSCAASGSTFAYNAMGWYIQAPGKERELVAAISTSGGSTNYADSVKGRFTISRDMSKNTVYLQMNSLKPEVTAVYFCAARPKTPSITRYGYWGQGTHVTVSS", "polyreactivity (PSR sort gate)": "high polyreactivity"}
{"sequence": "QVQLVESGGGLVQAGGSLRLSCAASGSTFAYNAMGWYRQAPGKERELVARISSSGDITYYADSVKGRFTISRDNAKNTVYLQMNCLKPEDTAVYYCAKRYLTRYKGYYYWGQGTQVTVSS", "polyreactivity (PSR sort gate)": "high polyreactivity"}
{"sequence": "QVQLVESGGGLVQAGGSLRLSCAASGSTFAYNDMGWYRQAQGKERELVADIRSGGNTYADSVKGRFTISRDNAKNTVYLQMNSLKPVDTAVYYCAVDGGEFSSYGYWGQGTQLTVSS", "polyreactivity (PSR sort gate)": "low polyreactivity"}
{"sequence": "QVQLVESGGGLVQAGGSLRLSCAASGSTFAYNTMGWYRQAPGKERELVAAISQRGGSTYADSVKGRFTISRDNAKNTVYLQMNSLKPEETAVYYCAAVGYTYKFDYWGQGTQVTVSS", "polyreactivity (PSR sort gate)": "low polyreactivity"}
{"sequence": "QVQLVESGGGLVQAGGSLRLSCAASGSTFAYYAMGWYRQAPGKERELVAAISRTGGSTYYADSVKGRFTISRDNAKNTVYLQMNSLKPEDTAVYYCNARAPVGTFDYDYWGQGTQVTVSS", "polyreactivity (PSR sort gate)": "low polyreactivity"}
{"sequence": "QVQLVESGGGLVQAGGSLRLSCAASGSTFAYYAMGWYRQAPGKERELVAAISSGGSTYYADSVKGRFTISRDNAKNTVYLQMNSLKPEDTAVYYCNKLWVGKFKRYEFGYWGQGTQVTVSS", "polyreactivity (PSR sort gate)": "low polyreactivity"}
{"sequence": "QVQLVESGGGLVQAGGSLRLSCAASGSTFAYYAMGWYRQAPGKERELVAAITWSGGSTSYADSVKGRFTISRDNAKNTVYLQMNSLKPEDTGVYYCNADDKPLDWREYNYWGQGTQVTVSS", "polyreactivity (PSR sort gate)": "low polyreactivity"}
{"sequence": "QVQLVESGGGLVQAGGSLRLSCAASGSTFAYYAMGWYSPAPGKERELVAAISSSGGRTYYADSVKGRFTISRDNAKNTVYLQMYSLKPEDTAVYYCAARSPYYSASVRYDYWGQGTQVTVSS", "polyreactivity (PSR sort gate)": "high polyreactivity"}
{"sequence": "QVQLVESGGGLVQAGGSLRLSCAASGSTFAYYTMGWYRQAPGKERELVAAITWSGGRTFYADSVKGRFTISRDNAKNTVYLQMNSLKPEDTAVYYCNTDDSHRPPRTPDDYNYWGQGTQVTVSS", "polyreactivity (PSR sort gate)": "high polyreactivity"}
{"sequence": "QVQLVESGGGLVQAGGSLRLSCAASGSTFAYYVMGWYRQAPGTERELVAAITSSGGRTYYADSVKGRFTISRDNAKNTVYLQMNSLKPEDTAVYYCAKVSQRGVDNSDYDYWGQGTQVTVSS", "polyreactivity (PSR sort gate)": "high polyreactivity"}
{"sequence": "QVQLVESGGGLVQAGGSLRLSCAASGSTFCFNAMGWSRQAPGKEREMVAAIPSRGGSTYYADSVKGRFTSSRDNAKKTVYLQMKSLKPEDTAVYYCASDYFGFSYAGYNYWGQGTQVTVSS", "polyreactivity (PSR sort gate)": "low polyreactivity"}
{"sequence": "QVQLVESGGGLVQAGGSLRLSCAASGSTFDANTMGWYRQAPGKERELVAAISSNGGRTYYADSVKGRFTISRDNAKNTVYLLMNSLKPEDTAVYYCAASSYYRYRETYDYWGLGTQVTVSS", "polyreactivity (PSR sort gate)": "high polyreactivity"}
{"sequence": "QVQLVESGGGLVQAGGSLRLSCAASGSTFDAYAMGWYRQAPGKERELVAAITNAGSTNYADSVKGRFTISRDNAKNTVYLQMNSLKPEDTAVFYCAADVSRWLDYGYDYWGQGTQVTVSS", "polyreactivity (PSR sort gate)": "low polyreactivity"}
{"sequence": "QVQLVESGGGLVQAGGSLRLSCAASGSTFDDNALGWYRQAPGKERELVAAISSRGSTYYADSVKGLFTISRDNAKNTVYLQMNSLKPEDTAVYYCAKRTYRYYGLNAYYYWGQGTQVTVSS", "polyreactivity (PSR sort gate)": "high polyreactivity"}
{"sequence": "QVQLVESGGGLVQAGGSLRLSCAASGSTFDDNAMGWYRQAPGKERELVASINYSTGSTYYADSVKGRFTISRDNAKNTVYLQMNSLKPEDTAVYYCAKDLRRYLSWWYRYPYDYWGQGTQVTVSS", "polyreactivity (PSR sort gate)": "low polyreactivity"}
{"sequence": "QVQLVESGGGLVQAGGSLRLSCAASGSTFDDNAMGWYRQAPGKERELVASITYRGGSTYYADSVKGRFTISRDNAKNTVYLQMNSLKPEDTAVYYCAKGHYFKYDYWGQGTQVTVSS", "polyreactivity (PSR sort gate)": "low polyreactivity"}
{"sequence": "QVQLVESGGGLVQAGGSLRLSCAASGSTFDDYAMGWYRQAPGKERELVAAISYSGGSTYYADSVKGRFTISRDNAKNTVYLQMNSLKPEDTAVYYCAADDLYTDYETWWRRGDYCGQGTQVTVSS", "polyreactivity (PSR sort gate)": "low polyreactivity"}
{"sequence": "QVQLVESGGGLVQAGGSLRLSCAASGSTFDFNAMGWYRQAPGKERELVAAITGSDGNTYYADSVKGRFTISRDNAKNNVYLQMNTLTPEDTAVYYFAADFSWWSKYVVLYDYWGQGTQVTVSS", "polyreactivity (PSR sort gate)": "low polyreactivity"}
{"sequence": "QVQLVESGGGLVQAGGSLRLSCAASGSTFDFYAMGWYRQAPGKERELVAAISKSGGSTYYADSVKGRFTISRDTAKNTVYLQMNSLKPEDTAVYYCAAYVSYRMYWGQGTQVTVST", "polyreactivity (PSR sort gate)": "high polyreactivity"}
{"sequence": "QVQLVESGGGLVQAGGSLRLSCAASGSTFDGNAMGWNRQAPGKERELVAAITRAGRTSYADSVKGRFTISRDNAKNTVYLQMNCLKPEDTAVFYCAKGGYDYWGQGTQVTVSS", "polyreactivity (PSR sort gate)": "low polyreactivity"}
{"sequence": "QVQLVESGGGLVQAGGSLRLSCAASGSTFDGNAMGWYRQAPGKERELDAAISDGDSTTYADSVKGRFTISRDNAKNTVYLQMNSLKPEDTAVYYCNADVARSKSQASAYDYWGQVTQVTVSS", "polyreactivity (PSR sort gate)": "low polyreactivity"}
{"sequence": "QVQLVESGGGLVQAGGSLRLSCAASGSTFDGYAMGWYRQAPGKERELVAAITSSDGSTYYADSVKGRFTISRDNAKNTVYLQMNSLKPEDTAVSDCNAEGYDWEFGYWGQGTQVTVSS", "polyreactivity (PSR sort gate)": "low polyreactivity"}
{"sequence": "QVQLVESGGGLVQAGGSLRLSCAASGSTFDINAMGWYRQAPGKERELFASITFSGGSTYYADSVKGRITISRDYEKNNVYLQMNSLKPEDTAVYYCAADSSGEYPGGYWGQGTQVTVSS", "polyreactivity (PSR sort gate)": "low polyreactivity"}
{"sequence": "QVQLVESGGGLVQAGGSLRLSCAASGSTFDINAMGWYRQAPGKERELVASITFCGGSTYYADSVKGRFTISRDNAKNTVYLEMNSLKPEDTAVYYCAADSSGEYPGGYWGQGTQVTVSS", "polyreactivity (PSR sort gate)": "low polyreactivity"}
{"sequence": "QVQLVESGGGLVQAGGSLRLSCAASGSTFDIYAMGWYRQAPGKERELVAAITFSGGSTYYADSVKGRFTISRDNAKNTVYLQMNSLKPEDTAVDYCAARNDYYKTFSGYDYWGQGTQVTVSS", "polyreactivity (PSR sort gate)": "low polyreactivity"}
{"sequence": "QVQLVESGGGLVQAGGSLRLSCAASGSTFDKYAMGWYRQAPGKERELVAVISGSGGRTYYADSVKGRFTISRDNAKNTVYLQMNSLKPEDTAVYYCAARGSFKKGYWGQGTQVTVSS", "polyreactivity (PSR sort gate)": "high polyreactivity"}
{"sequence": "QVQLVESGGGLVQAGGSLRLSCAASGSTFDNYALGWYRQAPGKERELVAAINWSGSSTYYADSVKGRFTISRDNAKNTVYLQMNSLKPEDTAVYYCNKTGVTPKTATDGDYWGQGTQVTVSS", "polyreactivity (PSR sort gate)": "low polyreactivity"}
{"sequence": "QVQLVESGGGLVQAGGSLRLSCAASGSTFDPNAMGWYRQAPGKERELVAAITGRGGSTYYADSVKGRFTISRDTAKNTVYLQMNSLKPEDTAVYYCAAEYLGSIDTSYNYWGQGTQVTVSS", "polyreactivity (PSR sort gate)": "low polyreactivity"}
{"sequence": "QVQLVESGGGLVQAGGSLRLSCAASGSTFDPNAMGWYRQAPRKEREFVAAIRVSGDNTYYADSVKGRFTISRDNAKNTVYLLMNSLKPEDTAVYYCAATGTVLGSVDYWGQGTQVTVSS", "polyreactivity (PSR sort gate)": "low polyreactivity"}
{"sequence": "QVQLVESGGGLVQAGGSLRLSCAASGSTFDPNTMGWYRQAPGKERELVAAITSSTASTYYADSVKGRFTISRDNAKNTVYLQMNSLKPEDTAVYYCAADSEQDNLRYYRWVWYYYWGQGTQVTVSS", "polyreactivity (PSR sort gate)": "low polyreactivity"}
{"sequence": "QVQLVESGGGLVQAGGSLRLSCAASGSTFDPYAMGWYRQAPGKDRELVAAISSDGSTYYADSVKGRFTISRDNAKNTVYLQMNSLKPEYTAVYYCAADPFYWYRSVRGEYWGQGTQVTVSS", "polyreactivity (PSR sort gate)": "low polyreactivity"}
{"sequence": "QVQLVESGGGLVQAGGSLRLSCAASGSTFDQYAMGWYRQAPGKDRELVAAISGSGGRTSYADSVKGRFTISRDNAKNTVYLQMNSLKPEDTAVYYCNKASYRISVPRYDYWGQGTQVTVTS", "polyreactivity (PSR sort gate)": "high polyreactivity"}
{"sequence": "QVQLVESGGGLVQAGGSLRLSCAASGSTFDRYAMGWYRQAPGKEREFVAAITWGGGSTYYADSVKGRFTISRDNAKNTVYLQMNSLKPEDTAVYYCATRYGATFGYWGQGTQVTVSS", "polyreactivity (PSR sort gate)": "low polyreactivity"}
